From IntAct's records for PubMed 16203728

B1: Erbin (Homo sapiens), Q96RT1-2 (parent)
chain: MTTKRSLFVRLVPCRCLRGEEETVTTLDYSHCSLEQVPKEIFTFEKTLEELYLDANQIEELPKQLFNCQSLHKLSLPDNDLTTLPASIANLINLRELDVSKNGIQEFPENIKNCKVLTIVEASVNPISKLPDGFSQLLNLTQLYLNDAFLEFLPANFGRLTKLQILELRENQLKMLPKTMNRLTQLERLDLGSNEFTEVPEVLEQLSGLKEFWMDANRLTFIPGFIGSLKQLTYLDVSKNNIEMVEEGISTCENLQDLLLSSNSLQQLPETIGSLKNITTLKIDENQLMYLPDSIGGLISVEELDCSFNEVEALPSSIGQLTNLRTFAADHNYLQQLPPEIGSWKNITVLFLHSNKLETLPEEMGDMQKLKVINLSDNRLKNLPFSFTKLQQLTAMWLSDNQSKPLIPLQKETDSETQKMVLTNYMFPQQPRTEDVMFISDNESFNPSLWEEQRKQRAQVAFECDEDKDEREAPPREGNLKRYPTPYPDELKNMVKTVQTIVHRLKDEETNEDSGRDLKPHEDQQDINKDVGVKTSESTTTVKSKVDEREKYMIGNSVQKISEPEAEISPGSLPVTANMKASENLKHIVNHDDVFEESEELSSDEEMKMAEMRPPLIETSINQPKVVALSNNKKDDTKETDSLSDEVTHNSNQNNSNCSSPSRMSDSVSLNTDSSQDTSLCSPVKQTHIDINSKIRQEDENFNSLLQNGDILNSSTEEKFKAHDKKDFNLPEYDLNVEERLVLIEKSVDSTATADDTHKLDHINMNLNKLITNDTFQPEIMERSKTQDIVLGTSFLSINSKEETEHLENGNKYPNLESVNKVNGHSEETSQSPNRTEPHDSDCSVDLGISKSTEDLSPQKSGPVGSVVKSHSITNMEIGGLKIYDILSDNGPQQPSTTVKITSAVDGKNIVRSKSATLLYDQPLQVFTGSSSSSDLISGTKAIFKFDSNHNPEEPNIIRGPTSGPQSAPQIYGPPQYNIQYSSSAAVKDTLWHSKQNPQIDHASFPPQLLPRSESTENQSYAKHSANMNFSNHNNVRANTAYHLHQRLGPARHGEMWAISPNDRLIPAVTRSTIQRQSSVSSTASVNLGDPGSTRRAQIPEGDYLSYREFHSAGRTPPMMPGSQRPLSARTYSIDGPNASRPQSARPSINEIPERTMSVSDFNYSRTSPSKRPNARVGSEHSLLDPPGKSKVPRDWREQVLRHIEAKKLEKMPLSNGQMGQPLRPQANYSQIHHPPQASVARHPSREQLIDYLMLKVAHQPPYTQPHCSPRQGHELAKQEIRVRVEKDPELGFSISGGVGGRGNPFRPDDDGIFVTRVQPEGPASKLLQPGDKIIQANGYSFINIEHGQAVSLLKTFQNTVELIIVREVSS

Variants of: B1
Details: with nod2_human NOD2, Q9HC29
Chain of nod2_human NOD2, Q9HC29 (Q9HC29 whole entry): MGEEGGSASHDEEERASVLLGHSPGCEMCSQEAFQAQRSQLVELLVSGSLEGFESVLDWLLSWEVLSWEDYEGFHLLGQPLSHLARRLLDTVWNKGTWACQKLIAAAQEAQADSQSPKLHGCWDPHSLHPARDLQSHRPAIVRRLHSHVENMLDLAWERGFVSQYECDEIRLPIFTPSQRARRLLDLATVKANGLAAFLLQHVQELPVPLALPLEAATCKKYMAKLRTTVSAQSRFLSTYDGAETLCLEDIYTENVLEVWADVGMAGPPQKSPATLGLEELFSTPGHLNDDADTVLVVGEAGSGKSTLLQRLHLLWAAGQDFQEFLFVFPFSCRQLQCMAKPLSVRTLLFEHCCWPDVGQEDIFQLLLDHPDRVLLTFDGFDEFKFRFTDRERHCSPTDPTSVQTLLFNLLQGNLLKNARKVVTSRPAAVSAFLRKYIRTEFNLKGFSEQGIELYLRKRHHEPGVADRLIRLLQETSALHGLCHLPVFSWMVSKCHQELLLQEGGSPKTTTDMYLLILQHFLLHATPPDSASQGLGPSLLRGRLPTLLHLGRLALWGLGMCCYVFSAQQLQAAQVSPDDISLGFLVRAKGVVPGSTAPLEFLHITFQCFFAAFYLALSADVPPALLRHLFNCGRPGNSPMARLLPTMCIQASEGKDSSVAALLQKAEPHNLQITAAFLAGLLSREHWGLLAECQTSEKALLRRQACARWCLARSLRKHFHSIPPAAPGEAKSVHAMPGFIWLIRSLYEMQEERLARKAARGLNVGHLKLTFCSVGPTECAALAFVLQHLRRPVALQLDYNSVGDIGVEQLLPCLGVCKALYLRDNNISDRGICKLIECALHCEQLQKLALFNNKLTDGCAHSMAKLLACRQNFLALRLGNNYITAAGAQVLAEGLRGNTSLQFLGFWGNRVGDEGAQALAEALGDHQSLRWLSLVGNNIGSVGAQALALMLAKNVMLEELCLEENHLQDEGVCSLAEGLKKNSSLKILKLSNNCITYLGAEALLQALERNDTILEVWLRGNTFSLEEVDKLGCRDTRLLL

Row | effect of a mutation on the interaction | Variant
1 | decreasing interaction | P315L
